The data set can be described thus: yeast display, Sf9 membrane polyspecificity reagent, FACS + sequencing; frameworks hold sequencing errors. In outline:
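Genes from sorted yeast were amplified by colony PCR, read by MiSeq 2 × 250 sequencing and filtered on CDR length. These cells carried a synthetic nanobody library in Saccharomyces cerevisiae BJ5465 and were sorted by FACS into low and high (top ~1%) gates on anti-HA and streptavidin fluorescence. Polyreactivity is labelled according to the gate of origin.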
On to “QLQLVESGRGLVQAGGSLRLRCAASGRTFNRYTMGGYRQAPGKERELVAAISRGAGTNYADSVKGRFTISRDNAKYTVYLQMKSLKPEDTAVYYCAAGYEIGYRTGRSGNTAHIYYWGQGTQVTVSS”, for which the “polyreactivity (PSR sort gate)” value is on record as “high polyreactivity”.

“QVQLGESGGGLLQAGGSLRLSCAASGRISSQYAMGLYRQAPWKERELFAAISTSGDRTYYADSVKGRFTISRDNAKNTVYLQMNSLKPEDTAVYYCAKEGPYTYGRDIYEYWGQGTQVTVSS”: the “polyreactivity (PSR sort gate)” value is reported as “low polyreactivity”. Next, “QVQLVESGGGLVQAGGSLRLSCAASGRIFNSNTMGWYRQAPGKERELVAAITYSGGSTYYADSVKGRFTISRDNAKNTVYLQMNSLNPEDTAVYYCAADFWEYDGPWYANDYDSWGQGTQVTVSS”: “low polyreactivity”. On to “QVQLVESGGGLVQAGGSLRVSCAASGFIFCGYARGWYRQAPGKERELDAAISSSGGSTYYADSVKGRFTISRDNAKNTDYLQMNSLKPEDTAVYYCAKVGRSRRYYYWGQGTQVTVSS”, for which the “polyreactivity (PSR sort gate)” value was “high polyreactivity”. Consider “QVQLVESGGGLVQAGGSLRLSCAASGSIFYFYTMGWYRQAPGKEREFVAAINGIGGSTYYADSVKGRFTISRDNAKNTVYLQMNSLKPEDTAVYYCAADAPWFKRNARKYNFWGQGTQVTVSS”, for which the “polyreactivity (PSR sort gate)” value is on record as “low polyreactivity”. In the case of “QVQLVESGGGVVQAGGSLRLSCAASGRIFGYYAMGWYRQAPGTERELVAVISSGGSTYADSVKGRFTISRDNAKNPVYLQMNSLKPEDTAVYYCAARHYWSSYRTSRSRYDYWGQGTQVTVSS”, the “polyreactivity (PSR sort gate)” value was “high polyreactivity”. For the sequence “QVQLVESGGGLVQAGGSLRLSCAASGFTFRIYTMGWYRQAPGKERELVAAISSRGGSTYYADSVKGRFTISRDNAKNTVDLQMNSLKPEDTAVYYCAASGRVYSSGYDYWGQGTQVTVSS”, the “polyreactivity (PSR sort gate)” value is listed as “high polyreactivity”. Turning to “QVQLVESGGGLVQAGGSLRLSCAASGFTFFIYVMGWYRQAPGKEREFVAAISSSGDSTYYADSVKGRFTISRDNAKNTVYLQMNSLKPEDTAVYYCAADRIRDLEFDYWGQGTQVTVSS”, the “polyreactivity (PSR sort gate)” value is “low polyreactivity”. In the case of “QVQLVESGGGLVQAGGSLRLSCAASGITFDKYAMGWYRQAPGKERELVAAISWGGGRTYYADSVKGRFTISRDNAKNTVYLQMNSLKPEDTAVYYCATSHGLYTRWYDYWGQGTQVTVSS”, the “polyreactivity (PSR sort gate)” value was “high polyreactivity”. Under “QVQLVESGGGLVQAGGSLRLSCAASGLIFESNAMGWYRQAPGKERELVAAITTNGGSTYYADSVKGRFTISRDNAKNTVYFQMNSLKPEVTAVYYCAALGLHQVIEYDYWGQGTQVTVSS” stands “low polyreactivity”. As for “QVQLVESGGGLVQAGGSLRLSCAASGRIFTYNAMGWYRQAPGKERELDATITWRGGGTYYADSVKGRFTISRDNAKNTVYLQMNSLKPEDTAVYYCNRRLPGDGQYGYRRYDYWGQGTQVTVSS”, the “polyreactivity (PSR sort gate)” value was “low polyreactivity”. For “QVQLVESAGGLVQAGGSLRLSCDASGSIFRYYDMGWYRQAPGKERELVAAITYYGGGTYYADSVKGRFTISRDNAKNTVYLQMNSLKAEDTAVYYCAVRRVGSIYMDRYRYVVADYVYWGQGTQVTVSS”, the “polyreactivity (PSR sort gate)” value was “low polyreactivity”. Under “QVQLVESGGGLVQAGGSLRLSCAASGTFWGYAMGWYRQAPGKERELVAAISASGASTSYADSVKGRFTISRDNAKNTVYLQMNSLKPEDTAVYYCDARRNTAYGYWGQGTQVTVSS” stands “high polyreactivity”; under “QVQLVESGGGIVQAGGSLRLSCAASGTFGYAMGWYRQAPGKERELVAAISYSGGSTYYADSVKGRFTISRDNAKNTVYLQMNSLKPEDTAVYYCAARTTLSYGYDYWGQGTQVTVSS”, “high polyreactivity”. As to “QGQLVESWGGLVQAGGSLRLSCAASGRIFYGYVMGWYREAPGKERELVAAINHSGTSTYYADSVKGRFTISRDIAKNTVYLQMNIMKPEDTAVYYCAADQVGWTYDYWGQGTQVTVSS”, the “polyreactivity (PSR sort gate)” value is given as “low polyreactivity”. As for “QVQLVESGGGLVQAGGSLRLSCAASGSTYYPYAMGWSRQAPGKEWQFVAAITWSGGSTYADSVKGRFTISRDNAKNTVNLQMNSLKPEDTAGYYCAAQPFVIDGGYRGDYWGQGTQETVSS”, the “polyreactivity (PSR sort gate)” value is “low polyreactivity”.

As for “QGQLVESGGGLVQAGGSLRLSCAASGSTFTSSAMGWSRQGPGKERELVAAISRSGGRTYYADSVKGRFTISRDNAKTTVYLQMNSQKPEDTAVYYCAADRSRWGQGTQVTVSS”, the “polyreactivity (PSR sort gate)” value was “high polyreactivity”. “QVQLVESGGGLVQAGGSLRLSCAASGSTFRYYAMGWYRQAPGKERELVAAISRSGGSTSYADSVKGRFTISRDNAKNTVYLQMNSLKPEDTAVYSCAARIYRKYYRYDYWGQGTQVTVSS”: the “polyreactivity (PSR sort gate)” value is “high polyreactivity”. As for “QVQLVESGGGLVQAGGSLRLSCAASGGTFAGNAMGWYRQAPGKERELVAAISKSGAITYYADSVKGRFTISRDNAKNTVYLQMNSLKPEDTAVYYCAARYLSGTSRYYYWGQGTQVTVSS”, the “polyreactivity (PSR sort gate)” value is on record as “high polyreactivity”. On to “QVQLVESGGGLVQAGGSLRLSCAASGRIFPPNAMGWYRQAPGKERELVAGITSSGDTTYYADSVKGRFTISRDNAKNTVYLQMTSLKPEDTAVYYCAKDEVYADDRSALFDYWGQGTQVTVSS”, for which the “polyreactivity (PSR sort gate)” value is “low polyreactivity”. As for “QVQLVESGGGLVQAGGSLRLSCAASGFTIYRYAMGWYRQAPGKERELVASITWSGGSTYYADSVKGRFTISRDNAKNTVYLQMNSLKPEDTAVYYCNALFSWGTGYGSSYGYWGQGTQVTVSS”, the “polyreactivity (PSR sort gate)” value was “high polyreactivity”. Regarding “QVQLVESGGGLVQAGGSLRLSCASSGGTFSTYAMGWYRQAPGKERELVAAISSTGGSTYYADSVKGRFTISGDNAKNTVYLQMNSLKPEDTAVYYCAAYYSRGWLLYWDEMYFWGQGTQVTVSS”, the “polyreactivity (PSR sort gate)” value is “high polyreactivity”.

Take “QVQLVESGGGLVQAGGSLRLSCAASGRIFTIYAMGWYRQAPGKERELVATISRRGGSTYYADSVKGRFTISRDNAKNTVYLQMNSLKPEDTAVYYCAADSVITWWAYDYWGQGTQVTVSS”: the “polyreactivity (PSR sort gate)” value is “high polyreactivity”. For “QVQLVESGGGLVQAGGSLRLSCAASGRIFYWNTMGWYRQAPGKEREFVAAITYGGGRTYYADSVKGRFTISRDNAKNTVYLQMNSLKPEDTAVYYCARRIPTLYLDYDYCGQGTQVTVSS”, the “polyreactivity (PSR sort gate)” value is “high polyreactivity”. On to “QVQLVESAGGLVQAGGSHRLSCAASGITFYRYVMARYRQAPGKERELVAAITSGGNTYYADSVKGRFTISRDNAKNTFYLQMNRLKPDDTAVYYCAAYFSGPFDYWGQGTQVTVSS”, for which the “polyreactivity (PSR sort gate)” value is listed as “high polyreactivity”.

For “QVQLVESGGGLVQAGGSLRLSCAASGGIFSRNAMGWSRQAPGKERELVAAISSGGSTYYADSVKGRFTISRDNAKNTVYLQMNTLKPEDTAVYYCAAKRSGQRTLLGYWGQGTQVTVSS”, the “polyreactivity (PSR sort gate)” value is listed as “high polyreactivity”. As to “QVQLVESGGGLVQAGGSLRLSCAASGITFFTYAMGWYRQAPGKERELVAAISGSGGSTYYADSVKGRFTISRDNAKNTVYLQMNSLKPEDTAVYYCATDTGYPYSYDLYDSYYWGQGTQVTVSS”, the “polyreactivity (PSR sort gate)” value is listed as “low polyreactivity”.

As for “QVQLVESGGGLVQAGGSLRLSCAASGFTFTYYAMGWYRQAPGKERELVAAISGNGGSTYYADSVKGRFTISRDNAKNTVYLQMNSLKPEDTAVYYCNALPKSVGRWYRGDYWGQGTQVTVSS”, the “polyreactivity (PSR sort gate)” value is listed as “high polyreactivity”. Regarding “QVQLVESGGGLVQAGGSLRLSCAASGFTCTYYAMGWYRQAPGKERELVAAITRGGITNYADSVKGRFTISRDNAKNTVYLQMNSLKPEDTAVYYCAADYWNFNWRYKLYRPYDYWGQGTQVTVSS”, the “polyreactivity (PSR sort gate)” value is “high polyreactivity”. For the sequence “QVQLVESGGGLVQAGGSLRLSCAASGSIFYYYAMGWYRQAPGKERELVASITRGGSTYYADSVKGRFTISRDNAKNTVYLQMNSLKPEDTAVYYCNADLGAYVPFDYWGQGTQVTVSS”, the “polyreactivity (PSR sort gate)” value is listed as “high polyreactivity”. Under “QVQLVESGGGLVQAGGSLRLTCAASGSIFGWYVMGWYIPAPGKERELVAAISSVGSTYYADSVKGRFTISRDNAKNTVYLQMKSLKREDTAVYYCAKLRYPYLFWDDSEYWGQGTQVTVSS” stands “low polyreactivity”; under “QVQLVESGGGLVQAGGSLRLSCAASGRNFPLNGMGWYRQAPGKERELVAAISYRGGSTYYADSVKGRFTISRDNPKNTVYLQMNSLKPEDTAVYYCAADYVSRRYYYWGQGTQVTVSS”, “high polyreactivity”; under “QVQLVESGGGLVQAGGSLRLSCAASGSTLRRNAMGWYRQAPGKERELVAAISGTGGSTYYADSVKGRFTISRDNAKNTVYLQMYSLKPEDTAVYYCAATGWYYDYDYWGQGTQVTVSS”, “low polyreactivity”.

Consider “EEELVESGGGLVQAGGSLRLSCAASGRTYPNTMGWYRQAPGKERELVAAITTSGTSTRYADSVKGRFTISRDNAKNTVYLQMNSLKPEDTAVYYCATRYSGKTYHYNYWGQGTQVTVSS”, for which the “polyreactivity (PSR sort gate)” value was “high polyreactivity”. As to “QVQLVESGGGLVQAGGSLRLSCAASGLIFGRYAMGWYRQAPGKERELVAAITCGTNTNYADSVKGRFTISRDNAKNTVYLQMNSLKPEDTAVYYCGKASGRCSLARGATYSVDYWGQGTQVTVSS”, the “polyreactivity (PSR sort gate)” value is reported as “high polyreactivity”.

Take “QVQLVESGGGLVQAGGSLRLSCAASGRTFGYYGMGWYRQAPGKERELVAAIRRRSGSTYYADSVKGRFTISRDNSKNTFYLQMNSLKPEDTAVYYCNQIRVSNFDYWGQGTQVTVSS”: the “polyreactivity (PSR sort gate)” value is reported as “high polyreactivity”. Next, “QVQLVESGGGLVQAGGSLRLSCAASGSTFSVYAMGWYRQAPGKERELVAAISWSGGSTYYADSVKGRFTISRDNAKNTVYLQMNSLKPEDTAVYYCNATVTYYRYYAYVRRYYWGQGTQVTVSS”: “high polyreactivity”; “QVQLVESGGGVVQAGGSLRISCAASGSTFGFNAMGWYRQAPGKERELVAAINNSGDSTYYADSVKGRFTISRDNAKNTVYLQMNSLKPEDTAVYYCAAPYLGRYYKNGYWGQGTQVTVSS”: “low polyreactivity”; “QVQLVESGGGLVQAGGSLRLSCAASGRTFRIYAEGWYRQPPGKERELVARITWSGGRTYYADSVKGRFTISRDNAQNTVYLQMNSLKPEDTAVYYCNAGGSWEFDYWGQGTQVTVSS”: “low polyreactivity”. For “QVQLVETGGGLVQAGGSLRLSCADSGRIFRYYVMGWYRQAPGKERELVAAISRSGGSTYYADSVKGRFTISRDNAKNTVYLQMNSLKPEETAVYYCAKRVSTYGFSGYDYWGQGTQVTVSS”, the “polyreactivity (PSR sort gate)” value was “high polyreactivity”.

For the sequence “QVQLVESGGGLVQAGGSLRLSCAASGLTFRPYAMGWYRPAPGKERELVAAISTTGGSTYYADSVKGRFTISRDNAKNTVYLQMNSLKPEDTAVYYCAAPTSQRRVLSYRPYGYWGQGTQVTVSS”, the “polyreactivity (PSR sort gate)” value is “high polyreactivity”.

For the origin of these results see the nanobody polyreactivity screen of Harvey et al. (2022).
